# Data: the DeepSol protein solubility set
# Assay: soluble on expression in E. coli; label from the status in PepcDB or PDB records
row,Sequence,soluble on expression in E. coli
1,MAHHHHHHMRCVRRSVLGSRGLKRPMFNYTRIFSMGITQHTFTGALLEDLRAGGCCGDQTEDNPGSSLRHGELDHFESPEAEAAHVEKVNTVVDDLFSRMPLPEDPMGAALAPTKEEMEEKAEWDVLKEVVRERYQRKIALKEAERVRIDKAMQHYRVDKDIEGGVSGVTGATGDSEKIRKKIERMKQEIVELERRLEAANHDDNL,not soluble
2,MGSDKIHHHHHHMPTVHDLDTPSILIDAARAEANIARAQAHADKNGLKLRPHIKTHKLPYWAKKQVAAGAVGITCQKIGEAEVMTDAGLSDIFLPYNILGRAKLQRLKTLHGRVTLSVTSDSMETLEGLAATFTDAGHPLQVLVECDTGMGRCGVQTADQAVALARLIDKAGGLTFGGLMTYPAAGRAAEAEAWLANAKQALAASGLACERISSGGTPDMWRSGEDSVVTEYRPGTYIYLDRYQVAKGVGTLDDCALTVLATVVSHPTATRAILDSGSKALSSDTLGLKDFGELLGAPDARVTGLSEEHGTVTLSGDAKLRIGERVRVVPDHCCVVTNLFNEVNLIDGETVLETLPVAARGKMG,not soluble
3,GMSVAAEVAQVAQSAIDDFNAAYGLCLDDDRLEQWPTLFVDDCLYQVIARENVDNGLPAAVMYCDSKGMLADRVVALRKANVFPEHFNRHLIGRAVITGVEGDQVSAEASYVVFQTRNDGETRIYNAGKYVDRFDLSGGTVRLKSRTCIYDTLRIATLLATPI,soluble
4,MAHHHHHHVDDDDKPGPALYEENALKGKIDDPNSYVPDAVQEAYKNLDSTSTLTEENFGKPYISAKDLKEIMYDHLPGFGTAFHQLVQVICKIGKDNNLLDTIHAEFQASLADGDSPQCALIQITKRVPIFQDVPPPIIHIRSRGDIPRACQKSLRPAPPSPKIDRGWVCLFKMQDGKTLGLKI,soluble
5,MLSGVGAPVGKQMLAGTEVAAMQINKAGGLLGREVELVIRDDKYNSSESVAVARELAGDGINLLLGGSQTVTALGLAPLAPELNMAVMIVAAAGMPVTHELFNPNIFRATANNYTQYSSLGRVLIEQNPDVRTWVSLAPDGDFGRDSALFFGKAVEKYAPGEKPTVLDTIYTQATATDFRTQINQLMSSDAEGLYIGIAASAQISFFQQARSVGLYDKFKAIGEVGNGDITGKAMGRNTHPNLWSVCHWIYNAEPFASNPVSKQLYEDYVTLKGDEMPSAQVAAGHRAAMAIFEGIRAAGSTETEAVLAAIEDVEFETVGGPVSFRKEDHQLVNTNYYSQMGPSREEPFFAFNKVVSIDAAEMIEPATPGKAFDISELPQLEHHHHHH,not soluble
6,MGSDKIHHHHHHMSEPIIISIHNYKSAGVTFYSIIDRQFKKDEILNSDLLGMDDTYLMLSQADEKIINKIKIIHGHFPFGLDRLLPQKSTYITFLRNPIERLISDYYYCKDFALAHNHSYASTMSFKEYLSCSDILNIDNGQTRFVAGGENVPYGDNSIEMLNRAIENIEKRFSFVGITEKFDESLLIANAVFSWNQYYYTSKNITSSKSYDFDEETWELLRKRNFLDLQLYEYALKKHAGDLKKIPYVKLKMILLKTLKSLFVVTKSIYAPVKKRFFR,not soluble
7,MSNMEPPPPMFPRSRIYHSYYSEEKTFSAPSANSQQGTQLPSKVYNKGLKDNDIEGLLSSLSIDELEDLNNDFDPDNSMLPPSQRCRDQTDKEPTGPYKRDNLLKFLEDKAKTEKDWEDVCPYTPGQKRGKVYDSDSGRNSEEPENGKMEMPIEIDLDDDEEELECALVTAPEKDLVDLAGILGMHNVLNQPQYYNALKGKTQDESTGTTFNGIMQSYVPRIVPDEPDNDTDVESCINRLREDDTDLKEVNINNMKRVSKERIRSLIEAACNSKHIEKFSLANTAISDSEARGLIELIETSPSLRVLNVESNFLTPELLARLLRSTLVTQSIVEFKADNQRQSVLGNQVEMDMMMAIEENESLLRVGISFASMEARHRVSEALERNYERVRLRRLGKDPNV,soluble
8,MSLRDGKHIRTKLTPQKDRGESSYRIGLYIRDSAAGIGTMTFVHPDSMKYGALGHVISDNDTKKPIQVEDGQIMRSTVTSIERGSHGNPGEKLARFSPDREVIGNITINSPFGIFGKLNTNMTNGVMDKAMPIALSHQVKEGPAKILTVIDQDKVEAFDIEVVSTVPQKFPATKGMVIKVTDKRLLAKTGGIVQGMSGSPIVQNGKVIGAVTHVFVNDPTSGYGVHIEWMLHEAGINIYDQERKASEGHHHHHH,soluble
9,MEGLTPEMQREAEALRREWETNPRWKGVRRDYRPEDVVRLRPSVMVEYTLAKRGAEKLWKLLHERPYVHTFGAYTGAMAVEMVRAGLEAIYLSGWQVAADANLAWQTYPDQSLYPYNSVPQIVKRINNALMRADQVERIEGRVTRDWYVPIVADAEAGFGGALNVFELTKAMIEAGAAGIHYEDQLASEKKCGHLGGKVLVPTGQHIRTLQAARLAADVMGVPTVIIARTDAEAATLITSDIDERDKPFILPDERTPEGFYRFKNGIEAGIARALAYAPYADVIWMETSKPDLEEARKFAEAVKKEFPDKLLAYNLSPSFNWKKFLDDETIAKFNRELGEMGYKFQFITLAGWHALNYYIWELAKGYKERGMPAFVELQQKEFAAQKEGFTAVKHQREVGAGYFDEVVLALTQGQASTLALKGSTEEAQFNEPVH,soluble
10,MSVGYDRLKTSSLAELRAAIRSGAYRSHTAGLGQGYLQANLAILPEAYALDFMRYCQRNPKPCPLIGVSDTGNPMMFTLGRDIDIRTDVPAYNVYRDGRLDSVSADITEDWRDDLVVFALGCSFTFEHAVMRAGVALWHVDNDRTVPMFRSNIETVPAGPFSGKMVVSMRAVPEDRVAEVAEISRAYPLAHGAPVYWGDPAGLGIADIMSPDWGDPAPLGPGEVPMFWACGVTPQVAIEAARLPLCITHKPGHMLITDVAEDAEVPVVETAQDKRLEHHHHHH,soluble
11,MSLDSQQKLAAQVTTPLTLSGDNQQAVAIFDQADPRIRIVYFGFTRCPDVCPTSLAMLSAALNQVDDKTKAQLRPMFISLDPERDDAKLAAQYAHYFHPMIEGLSGSVATTNQIAQKYGVIFRKTELPNSELKYTLDHSSYFYFLQPDGTLINKVPHTQDPTPIVDAIKKVIQEGHHHHHH,soluble
12,MKPVKVGICGLGTVGGGTFNVLERNAEEIARRAGRGIEVAQIAARRPNPKCDTGATPITADIFDVACNPEIDVVVELIGGYTLAHELVLKAIENGKHVVTANKALIAVHGNEIFAKAREKGVIVAFEAAVAGGIPVIKAIREGLSANRINWLAGIINGTGNFILSEMREKGRTFPDVLAEAQALGYAEADPTFDVEGIDAAHKLTILASIAFGIPLQFDKAYTEGISKLTSADVNYADALGYRIKHLGVARRTESGFELRVHPTLIPSDRLIANVNGVMNAVMVNGDAVGSTLYYGAGAGMEPTASSVVADLVDVVRAMTSDPENRVPHLAFQPDALSDHPILPIEACESAYYLRIQAKDHPGVLAQVATILSERGINIESIMQKEAEEQDGLVPMILVTHRVIEQRINDAIAALEALEGVSGPVVRIRVEQL,soluble
13,PEIKDHLIMVGFGFSGKTISKAAKAAGIPYIILETNPDIVKQEKTKGERIQYGDATFGAVQEHAGIRNARVLITGISDSVATRKIVEKAKELNPNIYVIAKVRNLQEMKHLHHLGADEIIPEEYETSVEIFVRLLEKYLV,not soluble
14,MYTEYQPSRLLAPYIDNYWEFKGTPEYGMRIHILPDGCTDFIFTLGEAVSKVKEETLVMQPYRSYFVGPMTKYSELVTYAEFVHQFGVRFLPCGLSGFTKLPLHEFANYRISTNEMQAVFDSTFIERLCEQNDVRGRIQVVEEYLLAYLAHNYQPVDTQVAAAVNIINQSAGKRSVRSLMDEVCLCQRHFERKFKHNTGFTPKEYSRIVKFKNAVELLRNTTSVNLLTTAIDAGYYDLAHFSKEIKTLSGNTPSSFLSLTVPEDITLTYIEP,soluble
15,MGHHHHHHSHMLLTMPGGVAKAGYLHKKGGTQLQLLKWPLRFVIIHKRCVYYFKSSTSASPQGAFSLSGYNRVMRAAEETTSNNVFPFKIIHISKKHRTWFFSASSEEERKSWMALLRREIGHFHEKKDLP,soluble
